The assay deals with 광견병 바이러스 CVS-11의 야생형 G 단백질 (rabies virus CVS-11) (UniProt O92284). Kind of assay: cell-based or functional assay.
Chain of UniProt O92284 (O92284 20-524 limits assumed): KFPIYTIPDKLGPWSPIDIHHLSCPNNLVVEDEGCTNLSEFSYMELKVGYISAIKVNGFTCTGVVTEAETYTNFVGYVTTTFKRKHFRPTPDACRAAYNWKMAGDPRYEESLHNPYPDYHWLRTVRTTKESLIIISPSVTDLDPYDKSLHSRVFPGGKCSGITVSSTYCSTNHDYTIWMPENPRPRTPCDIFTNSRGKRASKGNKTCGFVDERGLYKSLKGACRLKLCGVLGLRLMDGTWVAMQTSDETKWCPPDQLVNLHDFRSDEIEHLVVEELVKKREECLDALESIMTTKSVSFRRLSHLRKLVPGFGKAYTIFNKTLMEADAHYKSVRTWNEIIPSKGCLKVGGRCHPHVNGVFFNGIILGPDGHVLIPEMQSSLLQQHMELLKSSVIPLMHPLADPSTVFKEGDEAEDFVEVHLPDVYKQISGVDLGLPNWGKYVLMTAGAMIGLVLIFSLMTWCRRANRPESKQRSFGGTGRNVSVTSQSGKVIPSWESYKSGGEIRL

B1: 이 건 항체 2 (antibody, V domains shown)
VH: EVQLVESGAEVKKPGASVKVSCKASGYTFTSYDVSWVRQAPGQGLEWMGWISAYRGNTKYAQKFQGRVTMTTDTSTSTAYMELRSLRSDDTAVYYCARAKSHPYYDFWSGYYVPGAFDIWGQGTMVTVSS
VL: ELQMTQSPSSLSASVGDRVTITCQASQDISNYLTWYQQKPGKAPKLLIYDASNLETGVPSRFSGSGSGTDFTFTISSLQPEDIATYYCQQYDNLPPTFGGGTKVEIKR
B1 returned an RFFIT IU/mL, CVS-11 of 1.59 IU/mL; an RFFIT IU/mg, CVS-11 (중화능력) of 7940 IU/mg; an RFFIT Titer, CVS-11 of 270.

The record behind these values is patent KR20150068913A.
